Measured values reported in paper doi:10.1101/2025.09.29.679341 (bioRxiv, 2025).

Target: the molecule itself
Test: cryo-EM structure

B1: truncated β3-SBP (GABAA receptor β3 subunit, M3-M4 loop replaced by SQPARAA), from Expi293F cells (receptor)
chain: QSVNDPGNMSFVKETVDKLLKGYDIRLRPDFGGPPVCVGMNIDIASIDMVSEVNMDYTLTMYFQQYWRDKRLAYSGIPLNLTLDNRVADQLWVPDTYFLNDKKSFVHGVTVKNRMIRLHPDGTVLYGLRITTTAACMMDLRRYPLDEQNCTLEIESYGYTTDDIEFYWRGGDKAVTGVERIELPQFSIVEHRLVSRNVVFATGAYPRLSLSFRLKRNIGYFILQTYMPSILITILSWVSFWINYDASAARVALGITTVLTMTTINTHLRETLPKIPYVKAIDMYLMGCFVFVFLALLEYAFVNYIFFSQPARAAAIDRWSRIVFPFTFSLFNLVYWLYYVN
  stoichiometry N: 5
